Target: T1, GPNMB (Homo sapiens, UniProt Q14956)
T1 construct: V5His; made in house
T1 sequence (Q14956 23-492): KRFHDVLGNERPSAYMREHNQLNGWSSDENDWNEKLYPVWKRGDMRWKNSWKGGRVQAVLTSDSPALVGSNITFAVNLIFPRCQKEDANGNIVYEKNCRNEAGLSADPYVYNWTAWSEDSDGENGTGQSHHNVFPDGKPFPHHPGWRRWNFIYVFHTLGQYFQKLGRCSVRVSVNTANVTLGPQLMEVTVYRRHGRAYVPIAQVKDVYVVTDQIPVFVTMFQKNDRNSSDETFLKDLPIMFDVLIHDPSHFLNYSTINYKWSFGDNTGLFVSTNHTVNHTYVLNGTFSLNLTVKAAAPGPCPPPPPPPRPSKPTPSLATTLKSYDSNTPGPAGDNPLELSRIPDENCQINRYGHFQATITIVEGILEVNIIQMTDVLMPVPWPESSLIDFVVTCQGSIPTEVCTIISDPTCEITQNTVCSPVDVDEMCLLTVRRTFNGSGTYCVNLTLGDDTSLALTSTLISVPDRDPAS
Assay: Epitope binning of anti-GPNMB antibodies (competitive binding)
Conditions: six anti-GPNMB antibodies, three bins
Description: Certain antibodies, described herein were binned in accordance with the protocol described in U.S. Patent Application Publication No. 20030157730. […] Competitive binding by antibodies from […] supports antibody specificity for similar or adjacent epitopes. Non competitive binding supports antibody specificity for unique epitopes.
Three bins were created to further test the binding of six anti-GPNMB antibodies. Bin 1 included GPNMB antibodies (1.2.1), (1.10.1), and (2.22.1). Bin 2 included GPNMB antibodies (2.3.1) and (1.15.1), and Bin 3 included GPNMB antibody (2.10.1). The results of the binning assays are provided below in Tables 4 and 5.

- epitope bin: Bin 1
B1: Mab2.22.1: human anti-GPNMB antibody; VH SEQ ID NO: 164, VL SEQ ID NO: 173 (antibody, listed as Homo sapiens, V domains shown)
VH: QVQLEQSGPGLVKPSQNLSLTCTVSGGSISSGGYFWSWIRQHPGKGLEWIGYIYYSGNTYYNPSLKSRVTISVDTSKNQFSLKLSSVTAADTAVYYCARDYYYDTSGFSYRYDWYYGMDVWGQGTTVTVSSA
VL: DIQLTQSPSSLSASVGDRVTITCRASQGIRNDLGWYQQKPGKAPKRLIYAASSLQNGVPSRFSGSGSGTEFTLTISSLQPEDFATYYCLQHNTYPAFGQGTKVEIKR

Reference: patent publication US20140314780A1, “Compositions Using Antibodies Directed to GPNMB and Uses Thereof” (Celldex Therapeutics, Inc., priority 2008, published 2014)
